4 molecules from article PMC10675231, “Electrochemiluminescence Aptasensor with Dual Signal Amplification by Silica Nanochannel-Based Confinement Effect on Nanocatalyst and Efficient Emitter Enrichment for Highly Sensitive Detection of C-R” can be followed below.

The target in series [1] is T1, C-reactive protein (CRP) (human, UniProt P02741 19-224).
T1 sequence: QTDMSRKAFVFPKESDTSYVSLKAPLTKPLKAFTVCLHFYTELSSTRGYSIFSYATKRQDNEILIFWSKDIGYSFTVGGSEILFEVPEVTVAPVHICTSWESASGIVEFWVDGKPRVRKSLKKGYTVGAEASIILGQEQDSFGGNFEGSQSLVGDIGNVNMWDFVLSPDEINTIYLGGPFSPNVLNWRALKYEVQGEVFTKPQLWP
The series can be described thus: electrochemiluminescence aptasensor; no significant signal change; 0.01 M phosphate buffer (KH2PO4/Na2HPO4) pH 7.4; CRP incubation 80 min; binding temperature not stated. To be noted: protein: recombinant; chain copies: 5.

The target in the next series is T2, alpha-fetoprotein (AFP) (UniProt P02771 19-609).
T2 sequence: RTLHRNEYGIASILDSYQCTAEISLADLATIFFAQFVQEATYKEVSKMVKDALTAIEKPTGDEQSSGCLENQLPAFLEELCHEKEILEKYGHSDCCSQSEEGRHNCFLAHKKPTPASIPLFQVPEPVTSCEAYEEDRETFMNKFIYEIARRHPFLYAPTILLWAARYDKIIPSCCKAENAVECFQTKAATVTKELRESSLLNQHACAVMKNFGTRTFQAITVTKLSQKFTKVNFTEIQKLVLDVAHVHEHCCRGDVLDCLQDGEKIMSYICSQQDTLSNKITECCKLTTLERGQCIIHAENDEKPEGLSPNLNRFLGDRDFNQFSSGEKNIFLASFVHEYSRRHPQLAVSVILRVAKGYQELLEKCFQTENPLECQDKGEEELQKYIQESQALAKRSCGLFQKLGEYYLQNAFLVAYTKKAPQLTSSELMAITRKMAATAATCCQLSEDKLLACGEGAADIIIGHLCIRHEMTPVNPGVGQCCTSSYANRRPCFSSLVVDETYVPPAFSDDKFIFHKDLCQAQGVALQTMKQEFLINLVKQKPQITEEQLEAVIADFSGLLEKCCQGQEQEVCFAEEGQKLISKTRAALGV
The series can be described thus: electrochemiluminescence aptasensor; 100 ng/mL AFP; change very minimal vs 10 ng/mL CRP; 0.01 M phosphate buffer (KH2PO4/Na2HPO4) pH 7.4; CRP incubation 80 min; binding temperature not stated. To be noted: protein: commercial.

The target in series [2] is cancer antigen 15-3 (CA15-3) (UniProt P15941 24-1097). The series can be described thus: electrochemiluminescence aptasensor; 100 ng/mL CA15-3; change very minimal vs 10 ng/mL CRP; 0.01 M phosphate buffer (KH2PO4/Na2HPO4) pH 7.4; CRP incubation 80 min; binding temperature not stated. Conditions: protein: commercial.
The target of series [3] is T1, C-reactive protein (CRP). Nature of the series: electrochemiluminescence aptasensor; Ru(bpy)3 2+/TPrA; BSA-blocked; linear 10 pg/mL-1 ug/mL, LOD 7.4 pg/mL; 0.01 M phosphate buffer (KH2PO4/Na2HPO4) pH 7.4; CRP incubation 80 min; binding temperature not stated. To be noted: protein: recombinant; chain copies: 5.

Chain of cancer antigen 15-3 (CA15-3) (P15941 24-1097): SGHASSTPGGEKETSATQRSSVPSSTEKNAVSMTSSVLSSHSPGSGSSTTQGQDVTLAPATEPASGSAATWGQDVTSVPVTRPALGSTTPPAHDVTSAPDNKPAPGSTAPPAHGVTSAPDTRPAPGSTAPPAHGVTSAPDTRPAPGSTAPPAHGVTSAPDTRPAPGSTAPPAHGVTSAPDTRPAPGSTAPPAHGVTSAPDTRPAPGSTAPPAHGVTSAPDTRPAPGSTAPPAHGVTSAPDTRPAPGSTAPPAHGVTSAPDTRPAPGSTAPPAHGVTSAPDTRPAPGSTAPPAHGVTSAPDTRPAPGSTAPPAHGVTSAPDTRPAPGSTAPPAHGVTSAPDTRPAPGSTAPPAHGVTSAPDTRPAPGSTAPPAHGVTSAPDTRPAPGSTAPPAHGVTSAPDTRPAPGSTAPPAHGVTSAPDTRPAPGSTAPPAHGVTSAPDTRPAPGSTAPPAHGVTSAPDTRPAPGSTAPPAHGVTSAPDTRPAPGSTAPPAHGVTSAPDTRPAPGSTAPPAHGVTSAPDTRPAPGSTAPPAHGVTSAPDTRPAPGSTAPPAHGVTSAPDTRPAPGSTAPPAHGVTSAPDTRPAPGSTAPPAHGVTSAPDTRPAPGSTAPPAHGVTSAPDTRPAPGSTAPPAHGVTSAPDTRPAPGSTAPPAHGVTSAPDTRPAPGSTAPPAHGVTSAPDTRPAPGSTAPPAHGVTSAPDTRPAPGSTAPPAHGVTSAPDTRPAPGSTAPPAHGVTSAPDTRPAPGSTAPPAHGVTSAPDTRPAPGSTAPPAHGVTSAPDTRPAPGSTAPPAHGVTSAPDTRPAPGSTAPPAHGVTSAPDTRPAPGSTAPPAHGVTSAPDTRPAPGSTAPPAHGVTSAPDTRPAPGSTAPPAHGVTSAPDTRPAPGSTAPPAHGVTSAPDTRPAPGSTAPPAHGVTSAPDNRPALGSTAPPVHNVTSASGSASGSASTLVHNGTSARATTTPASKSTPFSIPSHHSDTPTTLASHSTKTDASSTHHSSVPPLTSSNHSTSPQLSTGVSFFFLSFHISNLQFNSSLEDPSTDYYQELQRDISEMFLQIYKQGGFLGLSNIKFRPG

On to GTTGGGCACGTGTTGTCTCTCTGTGTCTCGTGCCCTTCGCTAGGCCCACA (ssDNA, 3'-NH2 (sequence line; text also says 5' amino)) [AFB1 aptamer], for which the binding result in the series with C-reactive protein (CRP) [1] is reported as “no binding”. For the molecule CGAAGGGGATTCGAGGGGTGATTGCGTGCTCCATTTGGTG (ssDNA, 5'-NH2) [CRP aptamer], the results for the binding result (in the series with alpha-fetoprotein (AFP); in series [2]; with C-reactive protein (CRP) [3]) were “no binding”, “no binding” and “binds”, respectively. For the molecule ATACCAGCTTATTCAATT (ssDNA, 3'-NH2 (sequence line; text also says 5' amino)) [CEA aptamer], the binding result with C-reactive protein (CRP) [1] was “no binding”. On the same count and under the same terms, then ATTAAAGCTCGCCATCAAATAGCTGC (ssDNA, 5'-NH2) [PSA aptamer], with “no binding”.
